Experimental data published in patent publication US7642046B2, “Method for monitoring recruitment of proteins to the intracellular domain of a receptor in intact cells” (priority 2001, dated 2010).

How the values were obtained:
Format in all cases: cell-based
p75TNFR = biological target: T1, p75TNFR (Homo sapiens, UniProt P20333+P25942); assay: Recruitment assay with hybrid receptor (CD40 extracellular domain, p75TNFR transmembrane and intracellular domain); conditions: 293T cells, CD40 as relative standard
T1 construct: cDNA fragments encoding for the transmembrane and cytoplasmic domains of the LTβR, TACI, the p75TNF receptor, CD27; expressed in transfected cells; host or cells: 293T
T1 sequence (P25942+P20333 fused): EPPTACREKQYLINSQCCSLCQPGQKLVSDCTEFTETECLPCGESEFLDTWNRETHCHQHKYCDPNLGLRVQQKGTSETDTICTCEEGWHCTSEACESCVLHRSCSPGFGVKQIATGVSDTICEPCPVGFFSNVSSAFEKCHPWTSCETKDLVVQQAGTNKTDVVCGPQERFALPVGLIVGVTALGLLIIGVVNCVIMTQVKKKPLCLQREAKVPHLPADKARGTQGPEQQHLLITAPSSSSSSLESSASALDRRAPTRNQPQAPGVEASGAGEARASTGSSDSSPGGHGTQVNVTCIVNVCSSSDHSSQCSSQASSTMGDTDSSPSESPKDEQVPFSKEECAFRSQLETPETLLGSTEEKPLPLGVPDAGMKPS
Procedure: The recruitment of TRAF to CD40 can be quantitatively measured using the assay described in example 1. For that purpose, the assay conditions were adjusted in such a way that TRAF expression was in significant excess over the expression of CD40. This was the case when the TRAF expression plasmid was used at a two to three fold excess over the CD40 expression plasmid. The CD40 bound TRAF concentration was measured as described in example 1. A reference extract containing CD40/TRAF complexes served as a standard in each assay. This standard extract consisted of a large pool extract from cells that had been co-transfected with the plasmids encoding CD40/TRAF1, CD40/TRAF2, CD40/TRAF3, CD40/TRAF5 and CD40/TRAF6. The extracts were tested for the presence of CD40/TRAF complexes and the complex concentrations in each extract were arbitrarily defined as 1000 U/ml. The extracts were frozen in small aliquots and kept at −80° C. until further use. […] The necessary normalization for sample-to-sample variations in the CD40 expression was calculated with the following formula: […]
Recruitment of various TRAFs to receptors different to CD40, was tested by the recruitment assay described in example 1 by transforming cells with expression plasmids encoding hybrids receptors comprising the extracellular domain of CD40 and transmembrane and intracellular domain of anyone of the following receptors: BCMA (Madry et al. 1998 and Hatzoglou et al. 2000) the LTβR-receptor (Mosialos et al. 1995, Crowe et al. 1994, Nakano et al. 1996), TACI (von Bulow et al. 1997, Xia et al. 2000) the p75TNFR (Rothe et al. 1994) and the CD27 (Gravestein et al. 1998, Akiba et al. 1998) (for details of constructs see example 7). Measurement of TRAF recruitment to the signalling domains of BCMA the LTβR-receptor TACI the p75TNFR or the CD27 was carried out by co-transfecting 293T cells with a plasmid encoding anyone of the above hybrid receptors together with a plasmid encoding TRAF and measurement of the TRAF/Receptor complex using the ELISA sandwich described in example 1 and the quantitation as described in example 3. […]

CD40 mutants [1] = biological target: T2, CD40 mutants (Homo sapiens, UniProt P25942, E235A); assay: Recruitment assay in intact cells with CD40 mutants (deletions or point mutations in TRAF binding sites); conditions: E235A plus deletion of PXQXT254 motif
T2 construct: expressed in transfected cells; host or cells: 293T
T2 sequence (P25942 21-245 E235A): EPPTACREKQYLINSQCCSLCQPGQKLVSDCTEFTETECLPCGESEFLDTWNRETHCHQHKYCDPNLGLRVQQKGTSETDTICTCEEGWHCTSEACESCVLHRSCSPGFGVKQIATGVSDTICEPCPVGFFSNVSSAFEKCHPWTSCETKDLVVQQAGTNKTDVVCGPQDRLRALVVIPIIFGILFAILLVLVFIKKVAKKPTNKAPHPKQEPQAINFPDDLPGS
Procedure: (§1) The lysates were cleared by centrifugation at 15000 G at 4° C. in a micro-centrifuge, 3 fold serially diluted (with lysis buffer containing 1% bovine serum albumin) and then every diluted sample incubated for 2 hours at room temperature (or overnight) in wells of ELISA microtiter plates coated with a mAb (Ro1) specific to the CD40 extra-cellular domain (Schwabe et al. 1997). For control purposes, instead of the wild type CD40 plasmid, a plasmid encoding a CD40 mutant lacking the entire signaling domain was used for transfection and transient expression (CD401-222, FIG. 1B). Following incubation exhaustive washes were carried out on the microtiter plates to remove any unbound protein [about 10 washing steps with PBS containing 0.05% Tween 20) PBS/Tween)]. To detect bound TRAF1, anti TRAF1 specific antibodies were loaded into the plates, incubated for about 3 hours at room temperature, […] by extensive washes to remove unbound antibody and detecting the bound antibody with an HRP conjugated secondary antibody. All antibodies (except when used as solid phase antibody) were diluted in PBS/Tween containing 1% BSA.
(§2) The recruitment of TRAF to CD40 can be quantitatively measured using the assay described in example 1. For that purpose, the assay conditions were adjusted in such a way that TRAF expression was in significant excess over the expression of CD40. This was the case when the TRAF expression plasmid was used at a two to three fold excess over the CD40 expression plasmid. The CD40 bound TRAF concentration was measured as described in example 1. A reference extract containing CD40/TRAF complexes served as a standard in each assay. This standard extract consisted of a large pool extract from cells that had been co-transfected with the plasmids encoding CD40/TRAF1, CD40/TRAF2, CD40/TRAF3, CD40/TRAF5 and CD40/TRAF6. The extracts were tested for the presence of CD40/TRAF complexes and the complex concentrations in each extract were arbitrarily defined as 1000 U/ml. The extracts were frozen in small aliquots and kept at −80° C. until further use. By comparing unknown samples to these extracts, it was possible to determine the relative CD40-TRAF complex concentrations in arbitrary units. The necessary normalization for sample-to-sample variations in the CD40 expression was calculated with the following formula: […]
(§3) The quantitative version of the TRAF recruitment assay as described in example 3 was used to compare CD40 and various CD40 mutants with respect to their TRAF recruitment behaviour. TRAF 1, 2, 3, 5 and 6 were examined. […] Additional deletion of the TRAF1/2/3/5 binding motif PXQXT254 at amino acid position 250 to 254 reduced the binding of all 5 TRAFs test to background levels (1-254EA in FIG. 3B). […]

CD40 mutants [2] = biological target: T3, CD40 mutants (Homo sapiens, UniProt P25942); assay: as above; conditions: CD40-222 (CD40 1-222) control, 293T cells
T3 construct: expressed in transfected cells; host or cells: 293T
T3 sequence (P25942 21-222, change not shown): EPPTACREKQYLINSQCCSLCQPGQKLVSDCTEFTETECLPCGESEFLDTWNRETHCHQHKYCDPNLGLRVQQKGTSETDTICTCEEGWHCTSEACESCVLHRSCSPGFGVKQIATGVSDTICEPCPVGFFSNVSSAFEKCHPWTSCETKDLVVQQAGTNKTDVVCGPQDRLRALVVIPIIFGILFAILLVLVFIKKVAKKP
Procedure: as §1, §2, §3

B1: TRAF2: TNF receptor associated factor 2, human adaptor protein expressed from pcDNA3 (protein, UniProt Q12933 1-501, looked up)
chain: MAAASVTPPGSLELLQPGFSKTLLGTKLEAKYLCSACRNVLRRPFQAQCGHRYCSFCLASILSSGPQNCAACVHEGIYEEGISILESSSAFPDNAARREVESLPAVCPSDGCTWKGTLKEYESCHEGRCPLMLTECPACKGLVRLGEKERHLEHECPERSLSCRHCRAPCCGADVKAHHEVCPKFPLTCDGCGKKKIPREKFQDHVKTCGKCRVPCRFHAIGCLETVEGEKQQEHEVQWLREHLAMLLSSVLEAKPLLGDQSHAGSELLQRCESLEKKTATFENIVCVLNREVERVAMTAEACSRQHRLDQDKIEALSSKVQQLERSIGLKDLAMADLEQKVLEMEASTYDGVFIWKISDFARKRQEAVAGRIPAIFSPAFYTSRYGYKMCLRIYLNGDGTGRGTHLSLFFVVMKGPNDALLRWPFNQKVTLMLLDQNNREHVIDAFRPDVTSSSFQRPVNDMNIASGCPLFCPVSKMEAKNSYVRDDAIFIKAIVDLTGL
modifications: full-length
notes: TNF receptor associated factor 2, human adaptor protein expressed from pcDNA3
Question: B1 was tested. Which “recruitment to p75TNFR, folds higher than recruitment to CD40” value (p75TNFR) did it give?
Answer: about 60 fold

Question: And the “binding to CD40 mutant 1-254EA” value (CD40 mutants [1])?
Answer: did not bind

B2: TRAF1: TNF receptor associated factor 1, adaptor protein overexpressed in 293T cells from pcDNA3 (protein, UniProt Q13077 1-416, looked up)
chain: MASSSGSSPRPAPDENEFPFGCPPTVCQDPKEPRALCCAGCLSENPRNGEDQICPKCRGEDLQSISPGSRLRTQEKAHPEVAEAGIGCPFAGVGCSFKGSPQSVQEHEVTSQTSHLNLLLGFMKQWKARLGCGLESGPMALEQNLSDLQLQAAVEVAGDLEVDCYRAPCSESQEELALQHFMKEKLLAELEGKLRVFENIVAVLNKEVEASHLALATSIHQSQLDRERILSLEQRVVELQQTLAQKDQALGKLEQSLRLMEEASFDGTFLWKITNVTRRCHESACGRTVSLFSPAFYTAKYGYKLCLRLYLNGDGTGKRTHLSLFIVIMRGEYDALLPWPFRNKVTFMLLDQNNREHAIDAFRPDLSSASFQRPQSETNVASGCPLFFPLSKLQSPKHAYVKDDTMFLKCIVETST
modifications: full-length
notes: TNF receptor associated factor 1, adaptor protein overexpressed in 293T cells from pcDNA3
Question: For B2, which “recruitment to p75TNFR, folds higher than recruitment to CD40” value (p75TNFR) is on record?
Answer: 25 fold

Question: What about the “recruitment to signalling-domain-deficient CD40 mutant” value (CD40 mutants [2]) of the same molecule?
Answer: undetectable
